Data taken from patent US20190033295A1 (MEDICINAL BIOCONVERGENCE RESEARCH CENTER, published 2019).
Blank lines part the entries; values can stand above or below the binder they belong to.

Experiments:
HSP70 protein [1] = target: T1, HSP70 protein (human, UniProt P0DMV8 1-641, limits assumed); experiment: IP of H460 cell lysate with Hsp70 antibody, western blot
T1 construct: Untagged HSP70: endogenous in H460 and 293T cells (co-IP, western blot with HSP70 antibody) and the purified protein fixed on the SPR chip; The construct of the purified protein is not described; also called heat shock protein 70; endogenous HSP70
T1 sequence (P0DMV8 whole entry): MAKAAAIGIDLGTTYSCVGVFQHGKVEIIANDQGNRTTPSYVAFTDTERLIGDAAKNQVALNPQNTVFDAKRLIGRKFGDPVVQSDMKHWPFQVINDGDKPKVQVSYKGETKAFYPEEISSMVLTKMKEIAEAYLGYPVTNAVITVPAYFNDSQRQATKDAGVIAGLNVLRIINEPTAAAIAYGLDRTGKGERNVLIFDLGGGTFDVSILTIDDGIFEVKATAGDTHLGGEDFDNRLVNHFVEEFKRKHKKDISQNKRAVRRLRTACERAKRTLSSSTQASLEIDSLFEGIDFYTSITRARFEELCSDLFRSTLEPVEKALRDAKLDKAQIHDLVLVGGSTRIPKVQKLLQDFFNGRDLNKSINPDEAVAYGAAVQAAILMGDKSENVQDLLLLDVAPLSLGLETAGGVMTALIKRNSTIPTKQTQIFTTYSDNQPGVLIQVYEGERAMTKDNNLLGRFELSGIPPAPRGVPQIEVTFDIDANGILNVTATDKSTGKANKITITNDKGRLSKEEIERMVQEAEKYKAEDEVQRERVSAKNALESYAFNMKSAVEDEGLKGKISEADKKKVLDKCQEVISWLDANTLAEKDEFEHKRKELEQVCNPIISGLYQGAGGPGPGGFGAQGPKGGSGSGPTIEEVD
Experimental: H460 cells were treated with […] (EGF (Peprotech)) for 30 minutes, and then lysed with IP buffer (50 mM Tris (pH7.4), 100 mM NaCl, 10% Glycerol, 1 mM EDTA, 0.5% TritonX-100, PBS) at 4° C. for 30 minutes. […] Actin (Sigma) means loading control, and WCL means whole cell lysate.

HSPA1L = target: T2, HSPA1L (UniProt P34931 1-641); experiment: strep-tag column pull-down from 293T lysate, LC-mass spectrometry
T2 construct: Identified by mass spectrometry of tryptic peptides
T2 sequence (P34931 whole entry): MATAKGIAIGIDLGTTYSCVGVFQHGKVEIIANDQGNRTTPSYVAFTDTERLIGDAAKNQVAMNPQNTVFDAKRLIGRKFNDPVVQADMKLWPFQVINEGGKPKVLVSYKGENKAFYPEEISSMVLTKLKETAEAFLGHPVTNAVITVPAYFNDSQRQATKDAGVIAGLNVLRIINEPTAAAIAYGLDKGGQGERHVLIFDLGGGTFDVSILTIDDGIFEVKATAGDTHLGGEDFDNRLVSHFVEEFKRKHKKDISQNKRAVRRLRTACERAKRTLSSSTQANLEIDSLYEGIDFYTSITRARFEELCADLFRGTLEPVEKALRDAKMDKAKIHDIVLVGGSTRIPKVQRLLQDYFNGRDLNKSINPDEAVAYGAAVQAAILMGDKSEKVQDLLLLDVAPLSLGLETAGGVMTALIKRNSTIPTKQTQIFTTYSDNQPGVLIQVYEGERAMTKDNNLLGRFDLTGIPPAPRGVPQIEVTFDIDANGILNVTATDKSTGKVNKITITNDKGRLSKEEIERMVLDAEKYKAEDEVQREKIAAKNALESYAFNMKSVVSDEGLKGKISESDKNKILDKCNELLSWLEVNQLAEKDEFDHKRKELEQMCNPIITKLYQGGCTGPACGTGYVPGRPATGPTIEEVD
Experimental: (§1) Separated proteins were degraded to their peptide levels by in-gel digestion using trypsin (Hyclone), and these peptides were analyzed by LC-mass spectrometry (Thermo) (FIG. 1A).
(§2) Cell lysis was performed by incubating at 4° C. for 30 min with an appropriate amount of lysis buffer (50 mM Tris(pH7.4), 100 mM NaCl, 10% Glycerol, 1 mM EDTA, 0.5% TritonX-100, PBS). And, lysed cell lysate was centrifuged at 13,200 rpm for 15 minutes. After […] the supernatant from the cell lysate, the supernatant was passed through a strep-tag column (thermo). After passing the supernatant, the proteins bound to the column were eluted by using elution buffer, and then the collected proteins were separated by SDS-PAGE.

HSPA9 = target: T3, HSPA9 (UniProt P38646 47-679); experiment: as above
T3 construct: Identified by mass spectrometry of tryptic peptides
T3 sequence (P38646 47-679 limits assumed): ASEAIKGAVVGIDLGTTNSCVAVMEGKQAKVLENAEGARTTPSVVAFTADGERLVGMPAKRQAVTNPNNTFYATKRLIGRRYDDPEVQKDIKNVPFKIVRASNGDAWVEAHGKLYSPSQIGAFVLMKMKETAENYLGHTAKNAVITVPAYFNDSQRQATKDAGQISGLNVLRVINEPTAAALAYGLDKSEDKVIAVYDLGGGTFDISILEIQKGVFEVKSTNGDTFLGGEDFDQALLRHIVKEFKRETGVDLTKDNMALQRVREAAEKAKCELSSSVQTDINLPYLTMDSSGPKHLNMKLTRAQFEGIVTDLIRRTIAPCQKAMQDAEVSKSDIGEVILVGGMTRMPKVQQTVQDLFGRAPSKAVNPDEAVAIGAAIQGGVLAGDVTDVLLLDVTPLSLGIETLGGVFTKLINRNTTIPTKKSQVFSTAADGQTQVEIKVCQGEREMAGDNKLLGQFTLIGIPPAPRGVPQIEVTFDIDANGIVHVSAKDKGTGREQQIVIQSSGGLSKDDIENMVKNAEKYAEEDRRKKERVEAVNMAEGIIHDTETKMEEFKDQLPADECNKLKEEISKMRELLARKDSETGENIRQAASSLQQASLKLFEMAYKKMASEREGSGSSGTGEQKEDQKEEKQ
Experimental: as §1, §2

HSPA5 = target: T4, HSPA5 (UniProt P11021 19-654); experiment: as above
T4 construct: Identified by mass spectrometry of tryptic peptides
T4 sequence (P11021 19-654 limits assumed): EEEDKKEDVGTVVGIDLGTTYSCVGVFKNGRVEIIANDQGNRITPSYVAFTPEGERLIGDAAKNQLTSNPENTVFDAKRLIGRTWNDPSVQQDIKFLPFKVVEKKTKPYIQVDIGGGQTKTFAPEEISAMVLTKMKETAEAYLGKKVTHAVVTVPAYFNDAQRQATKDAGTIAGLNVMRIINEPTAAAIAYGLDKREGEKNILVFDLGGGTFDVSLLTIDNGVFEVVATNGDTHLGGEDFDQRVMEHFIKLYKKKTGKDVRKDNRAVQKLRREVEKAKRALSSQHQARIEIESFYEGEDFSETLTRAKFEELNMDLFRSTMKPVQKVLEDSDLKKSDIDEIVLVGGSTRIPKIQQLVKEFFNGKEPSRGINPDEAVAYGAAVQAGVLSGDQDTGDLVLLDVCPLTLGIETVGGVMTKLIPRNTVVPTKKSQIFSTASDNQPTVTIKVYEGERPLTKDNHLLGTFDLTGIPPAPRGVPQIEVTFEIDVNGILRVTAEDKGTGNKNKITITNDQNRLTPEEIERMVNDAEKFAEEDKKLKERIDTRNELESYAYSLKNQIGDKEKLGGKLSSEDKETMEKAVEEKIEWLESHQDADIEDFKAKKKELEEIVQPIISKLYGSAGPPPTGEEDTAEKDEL
Experimental: as §1, §2

HSPA2 = target: T5, HSPA2 (UniProt P54652 1-639); experiment: as above
T5 construct: Identified by mass spectrometry of tryptic peptides
T5 sequence (P54652 whole entry): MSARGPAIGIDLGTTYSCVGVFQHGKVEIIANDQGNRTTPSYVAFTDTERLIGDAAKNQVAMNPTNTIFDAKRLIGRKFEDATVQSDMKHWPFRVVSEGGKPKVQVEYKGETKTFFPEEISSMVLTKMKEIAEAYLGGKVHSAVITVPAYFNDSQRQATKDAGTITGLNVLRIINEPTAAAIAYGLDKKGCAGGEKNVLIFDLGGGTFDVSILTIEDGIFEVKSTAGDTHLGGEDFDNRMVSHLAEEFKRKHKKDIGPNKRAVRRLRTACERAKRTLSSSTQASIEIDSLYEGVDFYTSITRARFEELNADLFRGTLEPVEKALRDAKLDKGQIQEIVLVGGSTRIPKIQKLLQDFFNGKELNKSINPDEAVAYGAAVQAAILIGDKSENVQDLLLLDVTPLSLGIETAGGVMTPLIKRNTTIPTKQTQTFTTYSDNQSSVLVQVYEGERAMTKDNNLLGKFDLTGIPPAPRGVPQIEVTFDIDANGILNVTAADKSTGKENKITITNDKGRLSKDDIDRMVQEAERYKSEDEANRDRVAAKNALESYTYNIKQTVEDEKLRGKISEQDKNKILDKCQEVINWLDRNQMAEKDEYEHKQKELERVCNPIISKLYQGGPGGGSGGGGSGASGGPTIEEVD
Experimental: as §1, §2

GFP-HSP70 = target: T6, GFP-HSP70 (human, UniProt P0DMV8 1-641); experiment: confocal microscopy of 293T cells overexpressing both
T6 construct: Overexpressed in 293T or H460 cells; order of the parts as in the printed name; also called GFP-HSP70 full; not shown: GFP
T6 sequence (P0DMV8 whole entry): as the sequence (P0DMV8 whole entry) above
Experimental: After EGF treatment, the cells were washed 3 times with cold PBS, and were fixed with cold methanol for 10 minutes. After fixation, the cells were washed 3 times with cold PBS, and nuclei were stained with DAPI (Invitrogen) solution. After staining, each fluorescence was observed using confocal microscopy.

HSP90B1 = target: T7, HSP90B1 (UniProt P14625 22-803); experiment: strep-tag column pull-down from 293T lysate, LC-mass spectrometry
T7 construct: Identified by mass spectrometry of tryptic peptides
T7 sequence (P14625 22-803 limits assumed): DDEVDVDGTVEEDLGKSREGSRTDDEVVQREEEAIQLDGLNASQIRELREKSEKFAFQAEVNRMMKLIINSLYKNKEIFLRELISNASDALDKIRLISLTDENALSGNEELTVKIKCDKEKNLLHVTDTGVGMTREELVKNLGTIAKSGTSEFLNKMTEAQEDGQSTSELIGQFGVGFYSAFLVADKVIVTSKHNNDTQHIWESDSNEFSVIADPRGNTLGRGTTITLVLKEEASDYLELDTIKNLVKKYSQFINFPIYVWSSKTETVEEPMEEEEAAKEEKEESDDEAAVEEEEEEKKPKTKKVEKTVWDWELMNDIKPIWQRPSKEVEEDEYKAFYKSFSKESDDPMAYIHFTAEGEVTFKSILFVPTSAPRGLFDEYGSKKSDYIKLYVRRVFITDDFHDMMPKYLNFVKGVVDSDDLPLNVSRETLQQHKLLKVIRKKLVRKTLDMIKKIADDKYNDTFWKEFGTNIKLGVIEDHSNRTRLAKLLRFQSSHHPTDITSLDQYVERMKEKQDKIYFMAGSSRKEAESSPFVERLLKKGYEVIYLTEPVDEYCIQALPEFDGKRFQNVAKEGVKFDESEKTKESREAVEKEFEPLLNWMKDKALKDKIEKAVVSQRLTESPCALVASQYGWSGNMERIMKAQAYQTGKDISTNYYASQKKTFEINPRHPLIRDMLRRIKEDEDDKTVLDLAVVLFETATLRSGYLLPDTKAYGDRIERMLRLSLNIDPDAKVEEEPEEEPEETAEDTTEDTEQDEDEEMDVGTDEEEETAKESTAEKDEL
Experimental: as §1, §2

HSP70 protein [2] = target: T1, HSP70 protein; experiment: strep-tag column IP of 293T lysate overexpressing Strep-AIMP2-DX2, western blot
Experimental: After the cells were lysed in the same manner as described above, IP was performed using a Strep-tag column (GE Helathcare).

B1: AIMP2 (other, UniProt Q13155 1-320, looked up)
chain: MPMYQVKPYHGGGAPLRVELPTCMYRLPNVHGRSYGPAPGAGHVQEESNLSLQALESRQDDILKRLYELKAAVDGLSKMIQTPDADLDVTNIIQADEPTTLTTNALDLNSVLGKDYGALKDIVINANPASPPLSLLVLHRLLCEHFRVLSTVHTHSSVKSVPENLLKCFGEQNKKQPRQDYQLGFTLIWKNVPKTQMKFSIQTMCPIEGEGNIARFLFSLFGQKHNAVNATLIDSWVDIAIFQLKEGSSKEKAAVFRSMNSALGKSPWLAGNELTVADVVLWSVLQQIGGCSVTVPANVQRWMRSCENLAPFNTALKLLK
notes: Endogenous protein in H460 cell lysate; also called p38/JTV-1
binding result (HSP70 protein [1]): no binding

B2: strep-AIMP2 (other, UniProt Q13155 1-320, looked up)
chain: B1 chain
notes: Overexpressed in 293T cells; not shown: Strep tag from the pEXPR-IBA5 vector
binding result (HSPA1L): no binding | binding result (HSPA9): no binding | binding result (HSPA5): no binding | binding result (HSPA2): no binding

Results, then the binder that gave them:

binding result (HSP70 protein [1]): binds
B3: AIMP2-DX2 protein (other)
chain: MPMYQVKPYHGGGAPLRVELPTCMYRLPNVHGRSYGPAPGAGHVQDYGALKDIVINANPASPPLSLLVLHRLLCEHFRVLSTVHTHSSVKSVPENLLKCFGEQNKKQPRQDYQLGFTLIWKNVPKTQMKFSIQTMCPIEGEGNIARFLFSLFGQKHNAVNATLIDSWVDIAIFQLKEGSSKEKAAVFRSMNSALGKSPWLAGNELTVADVVLWSVLQQIGGCSVTVPANVQRWMRSCENLAPFNTALKLLK
notes: Untagged AIMP2-DX2: endogenous in H460 cells (IP with Hsp70 antibody) and the purified protein flowed in SPR

binding result (GFP-HSP70): binds
B4: RFP-AIMP2-DX2 (other)
chain: B3 chain
notes: Overexpressed in 293T cells; order of the parts as in the printed name; not shown: RFP

binding result (HSP90B1): no binding | binding result (HSP70 protein [2]): binds
B5: Strep-AIMP2-DX2 (other)
chain: B3 chain
notes: Overexpressed in 293T cells; The tag is put first as in the printed name; also called Strep-DX2; exogenous AIMP2-DX2; not shown: Strep tag from the pEXPR-IBA5 vector
